# Reference: IntAct's records for PubMed 22613832
# B1: Ras-related protein Rab-11B (Homo sapiens), Q15907 (parent)
# chain: MGTRDDEYDYLFKVVLIGDSGVGKSNLLSRFTRNEFNLESKSTIGVEFATRSIQVDGKTIKAQIWDTAGQERYRAITSAYYRGAVGALLVYDIAKHLTYENVERWLKELRDHADSNIVIMLVGNKSDLRHLRAVPTDEARAFAEKNNLSFIETSALDSTNVEEAFKNILTEIYRIVSQKQIADRAAHDESPGNNVVDISVPPTTDGQKPNKLQCCQNL
# partner: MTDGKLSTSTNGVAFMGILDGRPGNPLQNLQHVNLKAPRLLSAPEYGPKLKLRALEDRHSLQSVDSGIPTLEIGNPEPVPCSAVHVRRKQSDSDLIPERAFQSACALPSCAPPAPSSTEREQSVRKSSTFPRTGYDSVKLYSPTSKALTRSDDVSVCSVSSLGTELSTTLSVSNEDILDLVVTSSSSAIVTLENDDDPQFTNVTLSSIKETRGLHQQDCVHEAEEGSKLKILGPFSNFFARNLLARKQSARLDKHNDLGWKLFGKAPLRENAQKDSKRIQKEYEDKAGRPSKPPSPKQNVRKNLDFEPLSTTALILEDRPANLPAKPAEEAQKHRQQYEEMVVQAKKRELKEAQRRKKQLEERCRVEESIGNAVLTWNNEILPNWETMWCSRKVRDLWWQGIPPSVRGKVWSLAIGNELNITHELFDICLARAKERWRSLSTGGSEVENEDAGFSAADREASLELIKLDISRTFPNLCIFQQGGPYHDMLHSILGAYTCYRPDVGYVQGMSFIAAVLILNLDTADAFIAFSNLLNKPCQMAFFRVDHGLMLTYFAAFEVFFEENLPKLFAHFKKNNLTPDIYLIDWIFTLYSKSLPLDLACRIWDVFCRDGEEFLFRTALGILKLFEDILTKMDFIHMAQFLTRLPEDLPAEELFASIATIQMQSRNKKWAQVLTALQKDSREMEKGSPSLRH
# Variants of: B1
# Details: with tbc14_human TBC1D14, Q9P2M4
row,effect of a mutation on the interaction,Variant
1,increasing interaction strength,MGTRDDEYDYLFKVVLIGDSGVGKSNLLSRFTRNEFNLESKSTIGVEFATRSIQVDGKTIKAQIWDTAGAERYRAITSAYYRGAVGALLVYDIAKHLTYENVERWLKELRDHADSNIVIMLVGNKSDLRHLRAVPTDEARAFAEKNNLSFIETSALDSTNVEEAFKNILTEIYRIVSQKQIADRAAHDESPGNNVVDISVPPTTDGQKPNKLQCCQNL [Q70A]
2,decreasing interaction strength,MGTRDDEYDYLFKVVLIGDSGVGKNNLLSRFTRNEFNLESKSTIGVEFATRSIQVDGKTIKAQIWDTAGQERYRAITSAYYRGAVGALLVYDIAKHLTYENVERWLKELRDHADSNIVIMLVGNKSDLRHLRAVPTDEARAFAEKNNLSFIETSALDSTNVEEAFKNILTEIYRIVSQKQIADRAAHDESPGNNVVDISVPPTTDGQKPNKLQCCQNL [S25N]
